Laboratory results: the DeepSol protein solubility set

experiment: soluble on expression in E. coli; label from the status in PepcDB or PDB records

Sequence	soluble on expression in E. coli
MGSDKIHHHHHHMNHIMLGTTNISIFPLVFGTLPLGPLQAGLSPSEGGRLIRHALEHGVTMIDTATLYDTYPHVREGIAGWQGDVTIVTKTHANDGPTARAHVEKGLRELGRERLDIVHLHGARVADPFSDRADVLAELLRMKDEGKIGHVGLSSHYICAILKAADHPEIEVVHPLINRTGMGILDGSAAEMAEAIAACARAGKGVYAMKALAGGNLIAEARASLAYVRGLEGVHGVAIGMLSEAEVEANIALFSGNAPEDEVWRQLESRRRKLRIMENFCKGCGGCVEACASGALTVVNGKAVLDEAACILCGYCAASCPEFIIRVV	not soluble
AHHHHHHGSEYKPIRKVVSGNYAAAYAALHARVQVVAAYPITPQTSIIEKIAEFIANGEADIQYIPVESEHSAMAACIGASATGARTFTATSAQGLALMHEMLHWAAGARLPIVMVDVNRAMAPPWSVWDDQTDSLSQRDTGWMQFYAENNQEVYDGVLMAYKVAETVNVPAMVVESAFILSHTYDVVEMIPQELVDEFLPPRKPLYSLANFDEPIAVGALATPNDYYEFRYKLAKAHEEAKKVIKEVGKEFGERFGRDYSQMIETGYIDDADFVFMGMGSLMGTVKEAVDLLRKEGYKVGYAKVRWFRPFPKEELVEIAESVKGIAVLDRNFSFGQEGILFTESKGALYNSSAHPLMKNYIVGLGGRDVTVKDIKAIADDMKKVIESGKVDKEVVWYHLKR	soluble
MGSDKIHHHHHHMNPGWRVVDLIDFDGKVSYQRGQLAITSDSGELRATLPLAQIAVVLIGNKLIISGAVLVKLSEYDIAVLVCDWRRVPVAGSFSWNEHTRIAARQRAQASLSLPRQKSAWAQIIKAKILGQARTAAQLGFDATDLKNLARAVRSGDVDNREAMAAKRYWEIISAEDDFRRLPGLAATGWNGALDYAYTVLRGHGMRAICSAGLVGTLGVFHHGRGNQFALVDDLIEPFRPAIDYAVFSIVSNSQELDKETKRQLVAAVEEPFNSAGQSIPTVFTAFAQQYGRYVEGDVEKLVPPIWEGPFDAEER	not soluble
VMRLVTLRSHDQYNTTIYAMDDRYRGVFGRRDVLFMNEQDMAAQGLEHGDRVDIHTALPGSALTLEDITVVAYGIAPGTVGAYYPEANVLVPLNYLDEESGTPSYKSVPVRLTLRSKEIRPLVGGR	not soluble
MGSDKIHHHHHHMLTYTVYSEAGGVGKTTMAANLAVADARAGHDVLAIDMDPQEGSLSFLFDVADHRTDSEADSLVRHLVERPRGPFSDLIETSEGVDVLPAHNSLEVLSKHLRRREEEAADFGENWNPNVQLLRVLKDAGVPSEYDTVIIDPPATADVKLYNALHATRNLVIPFEPSGKGQQSVAGLADLVTGLEDTLDINVGVLAAVPNRFKGTNDQEEMLKRLQAESYDIPVVFRERTSLLEGCWRKQCSAFKYIEEHRSRERDYEIETLEQFEELAAHLRQTREQEATA	not soluble
MGSDKIHHHHHHMRRSDGRLLKSLSPFVRIIPHIMTKRNDAQNFYKQVVAVDKIDQYIKEKKDQGIRLNYLHLFIAVYVRVLAQRPQLNRFIMNNKIYTRYDIRISMAIKRLLKDDGEETTVKFLFSGLESIEEIVKIVDQTIEEGCAAGAANEVDTIAQRIMALPNSQVKLLVGTLKWMDRHNLLPKKIIEASPFHTSLFFTYLKSINLDFIYHHLYDFGTTGIFVALGKSKKLPVVEEDQVVVKKCCEIGYVLDERICDGLYYSNSFKLVKKYLANPYLLDERLEKVEEDVN	not soluble
MSLRMQDIERKVIEWLDQHSAKAIRLLKRLIGEKSTLGSEFNAQAVVLEKLRQFHMDIDVWEPSIKQLKQHPYFKSNRSDFHESPNIVAKKTGAGGGRSLILNGHIDVVPEGSVKDWKYEPYQAVEENGKIYGRGSTDMKGGNTALLFALEALHACDVKLKGDVLFQSVVDEECGGAGTLSAIMRGYRADGALIPEPTNMKLFIKQQGSMWFRITVKGLSAHGGTRYEGVSAIEKSMHVITAIQELEKVRNARISDPLYDNIPIPVPVNIGTISGGAWPSSVADRVVIEGRCGIAPHEKPEAVKLELENWLKDLEYHDEWFKRHPVQVEWFGAQWLPNDLPDDHPLISVLQSAYQKMKQTEPIIEASPWGTDGGLLYHAGDTPVIVFGPGETKTAHQANEYIEVEAMIESAKIIALFVMDWCGLHTDGEGHHHHHH	soluble
MFGKQLFEEVGSKISETIANSPAKDVEKNIKAMLGGAFNRMDLVTREEFDIQQQVLIKTRTKLAALEARLEKLEAAQNPERAALEAAEAAAE	not soluble
MTLKELLVGFGTQVRSIWMIGLHAFAKRETRMYPEEPVYLPPRYRGRIVLTRDPDGEERCVACNLCAVACPVGCISLQKAETKDGRWYPEFFRINFSRCIFCGLCEEACPTTAIQLTPDFELGEYKRQDLVYEKEDLLISGPGKYPEYNFYRMAGMAIDGKDKGEAENEAKPIDVKSLLP	not soluble
